Data set [1] has as its target T1, hT40 (Homo sapiens, UniProt P10636). Description: Biacore X100 SPR, scAb captured via anti-HuCk, hT40 as analyte. The class given is binding. The following applies: scAb. In a few lines:
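Captured scAb on anti-HuCk CM5 surface (flow cell 1 as reference) in HBS-EP+, capture set for theoretical RMax 100 RU; hT40 injected multi-cycle (0.15625–100 nM) or single-cycle (6.25–100 nM), 120 s association, 420 s dissociation, glycine pH 2.0 regeneration. Kinetics and affinity from 1:1 binding model fit.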

Data set [2] concerns the target dGAE (Homo sapiens, UniProt P10636). The experiment in a line: Biacore X100 SPR, scAb captured via anti-HuCk, dGAE as analyte. The class given is binding. To be noted: dissociation rate. As to the method:
Surface plasmon resonance (SPR) is widely regarded as the gold standard for real time measurement of protein-protein interactions such as antibody binding. All SPR experiments were carried out using a Biacore X100 machine and HBS EP+ running buffer (GE Healthcare). A ‘capture’ method was followed for affinity measurements, where an anti-human constant kappa chain (HuCk) antibody was conjugated to the surface of a CM5 sensor chip using an amine coupling kit and scAb molecules were immobilised via their HuCk domain. Amine coupling is a very common approach for immobilising the ligand to the chip surface. The chip surface has a dextran matrix derivatised with carboxyl groups, which after activation with N-hydroxysuccinimide (NHS) and 1-ethyl-3-(3-dimethylaminopropyl) carbodiimide (EDC), form reactive succinimide esters which allows the covalent capturing of the ligand via any available primary amine groups (e.g. Lysine) on the ligand (in this case anti-HuCk antibody). The capture antibody was diluted 1/100 in 10 mM Sodium acetate buffer pH 5.0 and passed over the activated chip surface for a period of at least 420 s. […]
The single cycle kinetics protocol was similar and utilised the same level of scAb capture. […] Binding responses were analysed in Biacore X100 evaluation software and data fitted to a 1:1 binding model to obtain kinetic and affinity characterisation.

The subject of data set [3] is hT40, dGA, dGAE and truncated tau fragments/peptides. The experiment in a line: Binding ELISA for epitope mapping with truncated tau proteins and biotinylated 13mer peptides. The arrangement: species or system human. The following applies: direct binding ELISA. On the procedure: A series of binding ELISA was performed using various truncated versions of the tau protein and 13mer peptide libraries spanning the entire hT40 molecule for mapping the epitopes of anti-tau scAbs (Full list of protein antigens used is given in Table 14). In general, ELISA plates were coated with 1 μg/ml hT40 or dGA or dGAE or other truncated versions of the protein and in the case of biotinylated peptides, plates were coated with 5 μg/ml Streptavidin followed by 1 μg/ml biotinylated peptide. The plates were blocked with 2% MPBS and scAb samples added at desired starting concentrations and double diluted across the plate. Binding was detected using anti-Human C Kappa HRP conjugated secondary antibody and the resulting immunoreaction was developed and absorbance values measured as described above.
Similarly, dGA binding ‘NS’, ‘S’ and ‘M’ group scAbs were subjected to further antigen binding ELISA using shorter tau proteins and biotinylated 13mer peptides as shown below (FIGS. 10A-F) and (FIGS. 11A-R).
For anti-tau mAb SPR measurements (Biacore X100™) and epitope mapping, the same methodologies described above (see Example 16) were followed.
Background: An ELISA detects its analyte on a solid surface through an enzyme-linked reagent.

Data set [4] addresses T1, hT40. Description: Sandwich ELISA, limits of detection (LoD) of antibody pairs. The class given is binding. The following applies: S1D12 mAb capture, detection scAb. On the procedure:
Full length tau (hT40), at 1 μg/ml starting concentration was added to designated wells and double diluted across rest of the plates and left to incubate at R/T for 1 h. A series of detection scAbs with varying epitope recognition properties were added at 10 μg/ml to designated wells (FIG. 22). For colourimetric detection HRP conjugated anti-HuCk secondary antibody was used and the resulting immunoreaction was developed and absorbance at 450 nm measured as described previously. Cut-off point for a positive binding event was an absorbance value of 0.3 following background subtraction. In order to enhance the assay sensitivity, a chemiluminescent detection method was adopted where 50 μL SuperSignal ELISA Femto Substrate (Thermo Scientific) was added to each well following incubation with anti-HuCK HRP antibody and subsequent washing. The luminescence was read using Clariostar Plus microplate reader. A further modification to this protocol was done where various detection scAbs were directly conjugated with HRP and detected using chemiluminescent protocol as before. The lowest levels of detection achieved using different detection scAbs and a comparison of colourimetric and chemiluminescent methods of detection are shown in Table 28
The assay was conducted using chemiluminescent protocol described above.

In data set [5] the target is aggregated dGAE (Homo sapiens, UniProt P10636). Description: Capture ELISA ranking of mAbs on dGAE aggregates. The following applies: 1 μg/ml capture mAb, 800 nM aggregated dGAE. It counts as binding. On the procedure:
The aggregation cascade of natively unfolded tau into insoluble filaments is a defining pathological feature of AD. Therefore, it is logical to target aggregated tau filaments for both therapeutic and diagnostic purposes. The following experiment was performed to assess the ability of our dGA mAb panel to bind aggregated dGAE using a capture ELISA method. Aggregates were prepared by incubating 100 μM dGAE and 10 mM dTT for 24 h at 37° C. with shaking at 700 RPM. The following day, dGAE aggregates were centrifuged at 17,000×g for 20 min and the supernatant was removed. The remaining pellet was washed with 10 mM phosphate buffer and centrifuged as above. Washing was repeated a further two times to remove any remaining dGAE monomer. The dGAE pellet was resuspended in 100 μl of 10 mM phosphate buffer. (Using a separate capture ELISA based quantification, we have worked out the efficiency of our dGAE aggregation as 80%)
For assessing the mAb panel for aggregate binding, designated rows of a maxisorp plate were coated with 1 μg/ml of each of the capture mAbs (S1D12, S1G2, CA4, NS2A1, CE2, E2E8 and CB7) and blocked as before. Following washing, 800 nM aggregated dGAE was added to the designated wells, double diluted across the plate and incubated for 1 h at RT. The plate was washed again and 1 μg/ml S1G2 scAb was added as detection antibody and incubated for 1 h at RT. To the row where S1G2 mAb was used for capture, […] s1D12 scAb was added as […] instead of S1G2. The assay was developed using HRP labelled HuCK as described previously.

T1 sequence (P10636 1-441 isoform P10636-8): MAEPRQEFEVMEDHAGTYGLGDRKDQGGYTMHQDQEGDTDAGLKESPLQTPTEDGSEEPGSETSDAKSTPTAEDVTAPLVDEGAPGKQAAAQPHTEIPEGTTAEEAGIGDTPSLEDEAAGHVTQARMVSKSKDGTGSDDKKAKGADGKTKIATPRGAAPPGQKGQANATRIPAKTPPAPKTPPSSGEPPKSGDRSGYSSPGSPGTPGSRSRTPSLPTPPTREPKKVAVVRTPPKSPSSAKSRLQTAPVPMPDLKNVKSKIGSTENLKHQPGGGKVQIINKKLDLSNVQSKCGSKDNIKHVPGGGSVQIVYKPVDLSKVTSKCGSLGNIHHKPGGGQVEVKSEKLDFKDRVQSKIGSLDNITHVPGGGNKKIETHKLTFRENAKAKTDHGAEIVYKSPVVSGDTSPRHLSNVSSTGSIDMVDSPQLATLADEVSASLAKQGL
dGAE, sequence (P10636 614-708): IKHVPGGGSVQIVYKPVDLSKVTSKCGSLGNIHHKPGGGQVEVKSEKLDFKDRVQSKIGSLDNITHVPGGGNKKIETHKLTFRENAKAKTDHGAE
aggregated dGAE, sequence (P10636 614-708): as above

B1: E2E8: anti-tau clone, SEQ ID NO: 248 (protein)
scFv: QVQLQESGPSLVKPSQTLSLTCTVSGFSLTDRGVAWVRQAPGKALEWVGTMRSGGTIDYNPALKSRLSITRDTSKSQVFLSLSSVTTEDMAMYYCARGYLSGDRYAWGRGLLVTVSSEGKSSGASGESKVDDQAVLTQPSSVSKSLGQSVSIACSGSRSDIGYGNYVSWFQQIPGSAPKLLIYDTNTRASGVPDRFSGARSGNTATLTINSLQAEDEADYYCANIDSSRSHLFGSGTRLTVLG
modifications: E2E8 amino acid sequence
For B1, in data set [1] (Table 23), the “T441 binding (in words)” value is “No T441 binding”. Further, in data set [1] (Table 26 summary), the “hT40 binding (in words)” value is on record as “No hT40 binding”. In addition, in data set [2], the “Kd” value is 0.0001915 s⁻¹. Also, in data set [3], the “cross-reactivity of 'E' group scAbs using hT40, dGA and dGAE antigens” value is “specific dGAE binding”.

B2: E1E8: anti-tau clone, SEQ ID NO: 250 (protein)
scFv: QVQLQESGPSLVKPSQTLSLTCTVSGFSLTDWGVAWVRQAPGKALEWLGTMRSGGTTDDNPALKSRLSITRDTSKSQVSLSLSSVTTEDMAMYYCARGYLSGVHYAWGRGLLVTVSSEGKSSGASGESKVDDQAVLTQPSSVSGSLGQSVSITCSGSSSNVGDGRYVSWFQQVPGSAPKLLIYDTTSRASGVPDRFSGSRSGNTATLIITSLQAEDEADYYCASIDSGNNLLFGSGTRLTVLG
modifications: E1E8 amino acid sequence
On to B2, for which, in data set [2], the “Kd” value was 0.0014 s⁻¹. Besides, the “cross-reactivity of 'E' group scAbs using hT40, dGA and dGAE antigens” value in data set [3] is on record as “specific dGAE binding”.

B3: CA2: anti-tau clone, SEQ ID NO: 363 (protein)
scFv: QVQLQESGPSLVKPSQTLSLTCTVSGFSLSSVAVNWVRQAPGKVPEWLGGIISNGGTGYNPALKSRLSITRDTSKSQVSLALTHVTTEDTAVYYCGRGVEWEGSMDYLGPGLLVTVSSEGKSSGSGSETKVDDQSVLTQPSSVSGFLGQRVTITCSGSSSNVGAGSYVGWYQQVPGSGLRILIYGATKRASGLPDRFSGSRSGNTATLTISSLQAEDEADYYCVSYQTDFTLVFGSGTRLTVLG
modifications: CA2 amino acid sequence
Regarding B3, in data set [4], the LoD chemiluminescence detection came to 0.37 ng/mL and the LoD colourimetric detection came out at 6 ng/mL.

B4: S1G2 mAb: S1G2 reformatted as mAb, SEQ ID NO: 457 and 458 (antibody)
heavy: QVQLQESGPSLVKPSQTLSLTCTVSGFSLTSNSVGWVRQAPGKAPEWVAGIDTDGEEGYNPALNSRLSITRDTSKSQVSLSLSSVTSEDTAVYYCGRSYRADGLAYGYVQAIDYWGPGLLVTVSSAKTTAPSVYPLAPVCGDTTGSSVTLGCLVKGYFPEPVTLTWNSGSLSSGVHTFPAVLQSDLYTLSSSVTVTSSTWPSQSITCNVAHPASSTKVDKKIEPRGPTIKPCPPCKCPAPNLLGGPSVFIFPPKIKDVLMISLSPIVTCVVVDVSEDDPDVQISWFVNNVEVHTAQTQTHREDYNSTLRVVSALPIQHQDWMSGKEFKCKVNNKDLPAPIERTISKPKGSVRAPQVYVLPPPEEEMTKKQVTLTCMVTDFMPEDIYVEWTNNGKTELNYKNTEPVLDSDGSYFMYSKLRVEKKNWVERNSYSCSVVHEGLHNHHTTKSFSRTPGK
light: QAVVTQPSSVSGSLGQRVSITCSGSFIGISSVGWFQQLPGSGLRTIIVASDGRPSGVPDRFSMSKSGNTATLTISSLQAEDEADYFCGSSDRTPYTGVFGSGTRLTVLGGQPKSSPSVTLFPPSSEELETNKATLVCTITDFYPGVVTVDWKVDGTPVTQGMETTQPSKQSNNKYMASSYLTLTARAWERHSSYSCQVTHEGHTVEKSLSRADCS
modifications: S1G2 mAB Heavy Chain; S1G2 mAB Light Chain
In the case of B4, the “ability to capture aggregated dGAE” value in data set [5] is recorded as “most efficient at capturing aggregated dGAE”.

B5: E2E8 mAb: E2E8 reformatted as mAb, SEQ ID NO: 493 and 494 (antibody)
heavy: QVQLQESGPSLVKPSQTLSLTCTVSGFSLTDRGVAWVRQAPGKALEWVGTMRSGGTIDYNPALKSRLSITRDTSKSQVFLSLSSVTTEDMAMYYCARGYLSGDRYAWGRGLLVTVSSAKTTAPSVYPLAPVCGDTTGSSVTLGCLVKGYFPEPVTLTWNSGSLSSGVHTFPAVLQSDLYTLSSSVTVTSSTWPSQSITCNVAHPASSTKVDKKIEPRGPTIKPCPPCKCPAPNLLGGPSVFIFPPKIKDVLMISLSPIVTCVVVDVSEDDPDVQISWFVNNVEVHTAQTQTHREDYNSTLRVVSALPIQHQDWMSGKEFKCKVNNKDLPAPIERTISKPKGSVRAPQVYVLPPPEEEMTKKQVTLTCMVTDFMPEDIYVEWTNNGKTELNYKNTEPVLDSDGSYFMYSKLRVEKKNWVERNSYSCSVVHEGLHNHHTTKSFSRTPGK
light: QAVLTQPSSVSKSLGQSVSIACSGSRSDIGYGNYVSWFQQIPGSAPKLLIYDTNTRASGVPDRFSGARSGNTATLTINSLQAEDEADYYCANIDSSRSHLFGSGTRLTVLGGQPKSSPSVTLFPPSSEELETNKATLVCTITDFYPGVVTVDWKVDGTPVTQGMETTQPSKQSNNKYMASSYLTLTARAWERHSSYSCQVTHEGHTVEKSLSRADCS
modifications: E2E8 mAB Heavy Chain; E2E8 mAB Light Chain
Regarding B5, in data set [5], the “ability to capture aggregated dGAE” value is recorded as “most efficient at capturing aggregated dGAE”.

Values taken from patent US12624096B2, “Anti-tau antibodies and methods of use thereof” (GTInvent Limited, priority 2020, dated 2026).
